Tests used:
FinO45-186 = target: T1, FinO45-186 (Escherichia coli (F plasmid)?, UniProt P29367 45-186); test: FP; […]; ITC: 25 mM HEPES pH 7.3, 150 mM NaCl, 10% glycerol, 1 mM TCEP, 25 C; conditions: protein: recombinant; tags: GST removed by 3C protease; label: 5' FAM; hairpin, 5-nt 3' tail
T1 sequence: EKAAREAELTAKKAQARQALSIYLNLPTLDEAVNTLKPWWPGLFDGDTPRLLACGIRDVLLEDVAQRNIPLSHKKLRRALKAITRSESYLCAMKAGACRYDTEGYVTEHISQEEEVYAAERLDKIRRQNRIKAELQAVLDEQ

RocC24-126 = RocC24-126 (Legionella pneumophila Paris, UniProt A0A3A6VMJ3 24-126); test: as above; conditions: protein: recombinant; tags: GST removed by 3C protease; label: 5' FAM; hairpin, 5-nt 3' tail
RocC14-126 [1] = target: T2, RocC14-126 (Legionella pneumophila Paris, UniProt A0A3A6VMJ3 14-126); test: ITC; little if any binding; […]; ITC: 25 mM HEPES pH 7.3, 150 mM NaCl, 10% glycerol, 1 mM TCEP, 25 C; conditions: protein: recombinant; tags: GST removed by 3C protease; hairpin, 5-nt 3' tail
RocC14-126 [2] = target: T2, RocC14-126; test: EMSA; similar to 1-126; […]; ITC: 25 mM HEPES pH 7.3, 150 mM NaCl, 10% glycerol, 1 mM TCEP, 25 C; conditions: protein: recombinant; tags: GST removed by 3C protease; label: 5' 32P; hairpin, 5-nt 3' tail
RocC1-126 = RocC1-126 (Legionella pneumophila Paris, UniProt A0A3A6VMJ3 1-126); test: EMSA; […]; ITC: 25 mM HEPES pH 7.3, 150 mM NaCl, 10% glycerol, 1 mM TCEP, 25 C; conditions: protein: recombinant; tags: GST removed by 3C protease; label: 5' 32P; hairpin, 5-nt 3' tail
RocC14-126 [3] = target: T2, RocC14-126; test: ITC; 1:1; […]; ITC: 25 mM HEPES pH 7.3, 150 mM NaCl, 10% glycerol, 1 mM TCEP, 25 C; conditions: protein: recombinant; tags: GST removed by 3C protease

Q: Does UGGGUCAAUUGGCGACACACUGAUUGGCCCUUUCU (structured_RNA) [FAM-RocRSL3 (5-nt tail)] bind (FinO45-186)?
A: Result: binds

Q: What about the binding signal (RocC24-126) of the same binder?
A: The binding signal was ~3 fold weaker than RocC1-126.

Q: Does UGGGUCAAUUGGCGACACACUGAUUGGCCCUUUCU (structured_RNA, 3'-phosphate) [RocRP (RocRSL3 3'-phosphate)] bind (RocC14-126 [1])?
A: Result: no binding

Q: Does GGGUGGGUCAAUUGGCGACACACUGAUUGGCCCUUUCU (structured_RNA) [RocRSL3 (IVT)] bind (RocC14-126 [2])?
A: Result: binds

Q: Does GGGUGGGUCAAUUGGCGACACACUGAUUGGCCCUUUCU (structured_RNA) [RocRSL3 (IVT)] bind (RocC1-126)?
A: Result: binds

Q: For GGCCCUUUCU (ssRNA) [10-nt single-stranded RNA], which binding signal (RocC14-126 [3]) is on record?
A: The binding signal was ~19 fold weaker than RocR9bp-tet.
